# Measured values as given in article PMC12598616, “Design and optimization of caspase-1-responsive fluorescent probes for pyroptosis imaging and anti-pyroptosis drug screening” (Chemical Science, 2025).
# Molecular target: T1, caspase-1 (Homo sapiens, UniProt P29466)
# T1 sequence (P29466 120-297 limits assumed): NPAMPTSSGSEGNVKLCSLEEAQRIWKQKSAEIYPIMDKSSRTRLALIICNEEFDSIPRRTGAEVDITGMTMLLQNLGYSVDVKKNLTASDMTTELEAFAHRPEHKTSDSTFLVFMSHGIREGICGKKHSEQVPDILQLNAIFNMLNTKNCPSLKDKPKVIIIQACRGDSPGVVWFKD
# T1 sequence (P29466 317-404 limits assumed): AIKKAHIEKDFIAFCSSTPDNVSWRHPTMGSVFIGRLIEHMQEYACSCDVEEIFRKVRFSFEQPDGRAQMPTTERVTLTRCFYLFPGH
# Experiment: Enzyme kinetic studies with caspase-1
# Format: biochemical
# Details: probe 0.5–4 μM, Cas-1 2 U/mL, HEPES assay buffer, 37 °C, read every 2 min, λex 510 nm/λem 585 nm, Lineweaver-Burk plot; read-out: Michaelis constant (KM)
# Description: The spectral and chemical properties of all probes were then evaluated. Upon interaction with Cas-1, the specific peptide of the probes is cleaved, leading to the disruption of the FRET process in the system and the recovery of donor fluorescence (Fig. 2a). Prior to fluorescence detection, the UV-vis absorption spectra of the probes were acquired. […] Subsequently, the sensitivity of the probes towards Cas-1 was measured in HEPES buffer (50 mM HEPES, 50 mM NaCl, 0.1% chaps, 5% glycerol, 10 mM DTT, 10 mM EDTA). […] The response differences among the probes were more intuitively observed by analyzing the standard curves of fluorescence intensity at 585 nm against the concentration of Cas-1 (Fig. 2b). […] The reaction kinetics of the probes were also measured by monitoring the fluorescence intensity of FPy1, YPy1 and WPy1 (0.5–4 μM) following incubation with Cas-1 (2 U mL^−1) (Fig. S3a–f). […] The reaction time of the probes was also investigated by monitoring the fluorescence spectra of the probes (5 μM) incubated with Cas-1 (2 U mL^−1) at various time intervals (Fig. S4a–c). […] Finally, the selectivity of the probes was evaluated. A series of potential biologically relevant interferents were selected, and the results illustrated that these interferents had no effect on the probes (Fig. S5a–c). […]
substance,measurement,value
"–FLTDG– [FPy1, RhoB donor, hNR quencher]",Km,4.42 µM
